Reference: patent US20090036380A1 (YEDA RESEARCH AND DEVELOPMENT, published 2009)
Ends that are not written are not given here.

Columns and labels:
[1] = target: T1, full length Karet protein (RRS bait) (mouse, UniProt Q8K2Y9 1-453); assay: RRS screen in yeast, whole Karet protein against an embryonic mouse brain library
T1 construct: Yeast RRS construct; fusion partner not described; also called whole Karet protein
Source text: The Ras rescue system (RRS) method is based on translocation of a mammalian cytoplasmic Ras to the plasma membrane, resulting in activation of a viability pathway in yeast (Broder, Y. C., S. Katz, and A. Aronheim. Curr Biol, 1998. 8 (20): p. 1121-4; Aronheim, A. Methods Mol Biol, 2004. 250: p. 251-62; Hubsman, M., G. et al. Nucleic Acids Res, 2001. 29 (4): p. E18).

[2] = target: T2, recombinant PTB-domain containing Karet(1-228) truncation mutant (mouse, UniProt Q8K2Y9 1-228); assay: in-vitro precipitation with biotinylated peptide on streptavidin beads, blot anti-His
T2 construct: Recombinant protein for in-vitro precipitation; also called recombinant Karet protein; Karet PTB domain
T2 sequence: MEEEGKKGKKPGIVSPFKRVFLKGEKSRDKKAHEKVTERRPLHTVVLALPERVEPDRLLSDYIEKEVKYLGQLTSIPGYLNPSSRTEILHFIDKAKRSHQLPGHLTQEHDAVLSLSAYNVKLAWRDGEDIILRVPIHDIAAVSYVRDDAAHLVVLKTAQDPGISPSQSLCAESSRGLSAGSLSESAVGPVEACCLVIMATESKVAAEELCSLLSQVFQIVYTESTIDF

Binder | binding result [1] | binding result [2]
Cyclin D1, mRNA (other, mouse, UniProt P25322 1-295, looked up, RRS library clone (embryonic mouse brain)) MEHQLLCCEVETIRRAYPDTNLLNDRVLRAMLKTEETCAPSVSYFKCVQKEIVPSMRKIVATWMLEVCEEQKCEEEVFPLAMNYLDRFLSLEPLKKSRLQLLGATCMFVASKMKETIPLTAEKLCIYTDNSIRPEELLQMELLLVNKLKWNLAAMTPHDFIEHFLSKMPEADENKQTIRKHAQTFVALCATDVKFISNPPSMVAAGSVVAAMQGLNLGSPNNFLSCYRTTHFLSRVIKCDPDCLRACQEQIEALLESSLRQAQQNVDPKATEEEGEVEEEAGLACTPTDVRDVDI | binds | –
MSLHFMTLGGSSLSPTEGKGSGLQGHI (also: biotinylated (position not given here), Immobilized on streptavidin beads; also called TrkA peptide) [biotinylated synthetic TrkA juxtamembrane region peptide, position 458-484] | – | binds
Cysteine and glycine-rich protein 1 (Csrp1), mRNA (other, mouse, UniProt P97315 1-193, looked up, RRS library clone (embryonic mouse brain)) MPNWGGGKKCGVCQKTVYFAEEVQCEGNSFHKSCFLCMVCKKNLDSTTVAVHGEEIYCKSCYGKKYGPKGYGYGQGAGTLSTDKGESLGIKHEEAPGHRPTTNPNASKFAQKIGGSERCPRCSQAVYAAEKVIGAGKSWHKSCFRCAKCGKGLESTTLADKDGEIYCKGCYAKNFGPKGFGFGQGAGALVHSE | binds | –
